Test results taken from patent publication US20260098059A1 (ENDOMET BIOSCIENCES, published 2026).
“And” between values parts separate entries of the source, which are not always exact repeats. Identical values can stand only once. Bridges are numbered along the chain shown (N, C = ends). [ ]: non-standard residue; d: D form. Cha = N[C@@H](CC1CCCCC1)C(=O)O; Chg = N[C@H](C(=O)O)C1CCCCC1; NMeA = CN[C@@H](C)C(=O)O; Abu = CC[C@H](N)C(=O)O

T1: β-catenin (UniProt P35222 134-665, limits assumed, biotinylated in the SPR and plate assays)
T1 construct: also called beta catenin; biotinylated β-catenin
T1 sequence (looked up): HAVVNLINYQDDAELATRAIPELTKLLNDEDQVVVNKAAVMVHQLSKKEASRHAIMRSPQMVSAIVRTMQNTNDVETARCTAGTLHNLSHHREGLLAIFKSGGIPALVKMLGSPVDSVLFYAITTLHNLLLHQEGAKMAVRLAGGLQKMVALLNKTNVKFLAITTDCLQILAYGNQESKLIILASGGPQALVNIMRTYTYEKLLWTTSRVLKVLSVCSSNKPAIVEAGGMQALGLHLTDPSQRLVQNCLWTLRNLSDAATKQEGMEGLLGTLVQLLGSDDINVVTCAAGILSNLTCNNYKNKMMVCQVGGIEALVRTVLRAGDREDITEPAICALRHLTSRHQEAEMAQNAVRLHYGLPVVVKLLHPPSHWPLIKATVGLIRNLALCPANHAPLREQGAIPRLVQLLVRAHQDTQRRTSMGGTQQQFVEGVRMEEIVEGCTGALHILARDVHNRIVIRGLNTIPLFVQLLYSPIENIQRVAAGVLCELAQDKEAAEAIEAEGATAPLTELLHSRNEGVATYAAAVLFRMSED

B1: SEQ ID NO: 419 (peptide)
peptide: AWAQKILDEHGQRVWG
HELM: PEPTIDE1{[ac].[bAla].W.[meA].Q.K.I.L.D.E.H.[O=C([C@@H](N[*:1])C1CCCCC1)[*:2]].Q.R.V.W.G.[am]}$PEPTIDE1,PEPTIDE1,6:R3-10:R3$$$V2.0
SMILES: CC[C@H](C)[C@@H]1NC(=O)[C@@H](NC(=O)[C@H](CCC(N)=O)NC(=O)[C@H](C)N(C)C(=O)[C@H](Cc2c[nH]c3ccccc23)NC(=O)CCNC(C)=O)CCCCNC(=O)CC[C@@H](C(=O)N[C@@H](Cc2c[nH]cn2)C(=O)N[C@H](C(=O)N[C@@H](CCC(N)=O)C(=O)N[C@@H](CCCNC(=N)N)C(=O)N[C@H](C(=O)N[C@@H](Cc2c[nH]c3ccccc23)C(=O)NCC(N)=O)C(C)C)C2CCCCC2)NC(=O)[C@H](CC(=O)O)NC(=O)[C@H](CC(C)C)NC1=O
B2: SEQ ID NO: 233 (peptide)
peptide: DWFLICAWK
HELM: PEPTIDE1{D.W.F.L.I.C.A.W.K}$PEPTIDE1,PEPTIDE1,1:R3-9:R3$$$V2.0
SMILES: CC[C@H](C)[C@@H]1NC(=O)[C@H](CC(C)C)NC(=O)[C@H](Cc2ccccc2)NC(=O)[C@H](Cc2c[nH]c3ccccc23)NC(=O)[C@@H](N)CC(=O)NCCCC[C@@H](C(=O)O)NC(=O)[C@H](Cc2c[nH]c3ccccc23)NC(=O)[C@H](C)NC(=O)[C@H](CS)NC1=O
B3: SEQ ID NO: 244 (peptide)
peptide: KWFLIXAWD
HELM: PEPTIDE1{K.W.F.L.I.[Abu].A.W.D}$PEPTIDE1,PEPTIDE1,1:R3-9:R3$$$V2.0
SMILES: CC[C@@H]1NC(=O)[C@H]([C@@H](C)CC)NC(=O)[C@H](CC(C)C)NC(=O)[C@H](Cc2ccccc2)NC(=O)[C@H](Cc2c[nH]c3ccccc23)NC(=O)[C@@H](N)CCCCNC(=O)C[C@@H](C(=O)O)NC(=O)[C@H](Cc2c[nH]c3ccccc23)NC(=O)[C@H](C)NC1=O
B4: SEQ ID NO: 245 (peptide)
peptide: XWFLICAWD
HELM: PEPTIDE1{[O=C(CCCCCN[*:1])[*:2]].W.F.L.I.C.A.W.D}$PEPTIDE1,PEPTIDE1,1:R1-9:R3$$$V2.0
SMILES: CC[C@H](C)[C@@H]1NC(=O)[C@H](CC(C)C)NC(=O)[C@H](Cc2ccccc2)NC(=O)[C@H](Cc2c[nH]c3ccccc23)NC(=O)CCCCCNC(=O)C[C@@H](C(=O)O)NC(=O)[C@H](Cc2c[nH]c3ccccc23)NC(=O)[C@H](C)NC(=O)[C@H](CS)NC1=O
B5: SEQ ID NO: 424 (peptide)
peptide: WAQXILDEHGQRVWG
HELM: PEPTIDE1{[ac].W.[meA].Q.[Orn].I.L.D.E.H.[O=C([C@@H](N[*:1])C1CCCCC1)[*:2]].Q.R.V.W.G.[am]}$PEPTIDE1,PEPTIDE1,5:R3-9:R3$$$V2.0
SMILES: CC[C@H](C)[C@@H]1NC(=O)[C@@H](NC(=O)[C@H](CCC(N)=O)NC(=O)[C@H](C)N(C)C(=O)[C@H](Cc2c[nH]c3ccccc23)NC(C)=O)CCCNC(=O)CC[C@@H](C(=O)N[C@@H](Cc2c[nH]cn2)C(=O)N[C@H](C(=O)N[C@@H](CCC(N)=O)C(=O)N[C@@H](CCCNC(=N)N)C(=O)N[C@H](C(=O)N[C@@H](Cc2c[nH]c3ccccc23)C(=O)NCC(N)=O)C(C)C)C2CCCCC2)NC(=O)[C@H](CC(=O)O)NC(=O)[C@H](CC(C)C)NC1=O
B6: SEQ ID NO: 466 (peptide)
peptide: Ac-W[NMeA]QSILDEH[Chg]QKVW-NH2
modifications: lactam 8-12; not fully specified; printed as Ac-NH-W-NMeA-QSILDE*H-Chg-QK*VW-NH2
B7: SEQ ID NO: 417 (peptide)
peptide: WAXKILDEHGQRVWG
HELM: PEPTIDE1{W.[meA].[Aib].K.I.L.D.E.H.[O=C([C@@H](N[*:1])C1CCCCC1)[*:2]].Q.R.V.W.G.[am]}$PEPTIDE1,PEPTIDE1,4:R3-8:R3$$$V2.0
SMILES: CC[C@H](C)[C@@H]1NC(=O)[C@@H](NC(=O)C(C)(C)NC(=O)[C@H](C)N(C)C(=O)[C@@H](N)Cc2c[nH]c3ccccc23)CCCCNC(=O)CC[C@@H](C(=O)N[C@@H](Cc2c[nH]cn2)C(=O)N[C@H](C(=O)N[C@@H](CCC(N)=O)C(=O)N[C@@H](CCCNC(=N)N)C(=O)N[C@H](C(=O)N[C@@H](Cc2c[nH]c3ccccc23)C(=O)NCC(N)=O)C(C)C)C2CCCCC2)NC(=O)[C@H](CC(=O)O)NC(=O)[C@H](CC(C)C)NC1=O
B8: SEQ ID NO: 423 (peptide)
peptide: WAQXILDEHGQRVWG
HELM: PEPTIDE1{W.[meA].Q.[Orn].I.L.D.E.H.[O=C([C@@H](N[*:1])C1CCCCC1)[*:2]].Q.R.V.W.G.[am]}$PEPTIDE1,PEPTIDE1,4:R3-8:R3$$$V2.0
SMILES: CC[C@H](C)[C@@H]1NC(=O)[C@@H](NC(=O)[C@H](CCC(N)=O)NC(=O)[C@H](C)N(C)C(=O)[C@@H](N)Cc2c[nH]c3ccccc23)CCCNC(=O)CC[C@@H](C(=O)N[C@@H](Cc2c[nH]cn2)C(=O)N[C@H](C(=O)N[C@@H](CCC(N)=O)C(=O)N[C@@H](CCCNC(=N)N)C(=O)N[C@H](C(=O)N[C@@H](Cc2c[nH]c3ccccc23)C(=O)NCC(N)=O)C(C)C)C2CCCCC2)NC(=O)[C@H](CC(=O)O)NC(=O)[C@H](CC(C)C)NC1=O
B9: SEQ ID NO: 246 (peptide)
peptide: XWFLIXAWD
HELM: PEPTIDE1{[O=C(CCCCCN[*:1])[*:2]].W.F.L.I.[Abu].A.W.D}$PEPTIDE1,PEPTIDE1,1:R1-9:R3$$$V2.0
SMILES: CC[C@@H]1NC(=O)[C@H]([C@@H](C)CC)NC(=O)[C@H](CC(C)C)NC(=O)[C@H](Cc2ccccc2)NC(=O)[C@H](Cc2c[nH]c3ccccc23)NC(=O)CCCCCNC(=O)C[C@@H](C(=O)O)NC(=O)[C@H](Cc2c[nH]c3ccccc23)NC(=O)[C@H](C)NC1=O
B10: SEQ ID NO: 414 (peptide)
peptide: WAQKILDEHGXRVWG
HELM: PEPTIDE1{[ac].W.[meA].Q.K.I.L.D.E.H.[O=C([C@@H](N[*:1])C1CCCCC1)[*:2]].[Aib].R.V.W.G.[am]}$PEPTIDE1,PEPTIDE1,5:R3-9:R3$$$V2.0
SMILES: CC[C@H](C)[C@@H]1NC(=O)[C@@H](NC(=O)[C@H](CCC(N)=O)NC(=O)[C@H](C)N(C)C(=O)[C@H](Cc2c[nH]c3ccccc23)NC(C)=O)CCCCNC(=O)CC[C@@H](C(=O)N[C@@H](Cc2c[nH]cn2)C(=O)N[C@H](C(=O)NC(C)(C)C(=O)N[C@@H](CCCNC(=N)N)C(=O)N[C@H](C(=O)N[C@@H](Cc2c[nH]c3ccccc23)C(=O)NCC(N)=O)C(C)C)C2CCCCC2)NC(=O)[C@H](CC(=O)O)NC(=O)[C@H](CC(C)C)NC1=O
B11: SEQ ID NO: 425 (peptide)
peptide: WAQXILDEHGQRVWG
HELM: PEPTIDE1{[CCCCCCCCC(=O)[*:2]].W.[meA].Q.[Orn].I.L.D.E.H.[O=C([C@@H](N[*:1])C1CCCCC1)[*:2]].Q.R.V.W.G.[am]}$PEPTIDE1,PEPTIDE1,5:R3-9:R3$$$V2.0
SMILES: CCCCCCCCC(=O)N[C@@H](Cc1c[nH]c2ccccc12)C(=O)N(C)[C@@H](C)C(=O)N[C@@H](CCC(N)=O)C(=O)N[C@H]1CCCNC(=O)CC[C@@H](C(=O)N[C@@H](Cc2c[nH]cn2)C(=O)N[C@H](C(=O)N[C@@H](CCC(N)=O)C(=O)N[C@@H](CCCNC(=N)N)C(=O)N[C@H](C(=O)N[C@@H](Cc2c[nH]c3ccccc23)C(=O)NCC(N)=O)C(C)C)C2CCCCC2)NC(=O)[C@H](CC(=O)O)NC(=O)[C@H](CC(C)C)NC(=O)[C@H]([C@@H](C)CC)NC1=O
B12: SEQ ID NO: 230 (peptide)
peptide: MWKLIEFWG
HELM: PEPTIDE1{M.W.K.L.I.E.F.W.G}$PEPTIDE1,PEPTIDE1,3:R3-6:R3$$$V2.0
SMILES: CC[C@H](C)[C@@H]1NC(=O)[C@H](CC(C)C)NC(=O)[C@@H](NC(=O)[C@H](Cc2c[nH]c3ccccc23)NC(=O)[C@@H](N)CCSC)CCCCNC(=O)CC[C@@H](C(=O)N[C@@H](Cc2ccccc2)C(=O)N[C@@H](Cc2c[nH]c3ccccc23)C(=O)NCC(=O)O)NC1=O

target: T1, β-catenin; experiment: competitive FP
From the text: Fluorescence polarization (FP) is another method used to analyze protein-ligand interactions. This methodology measures the change in fluorescence light emitted by a labelled compound free vs. conjugated to another compound in solution. Upon binding of the fluorescent molecule to a complex, polarization increases because of limited rotation of the fluorescent tracer. Competitive FP is often utilized in drug screens as it is formatted for high throughput screens in a plate format. This immunoassay is performed by introducing a non-conjugated drug to compete for binding to the labelled competitor-ligand complex, leading to a reduction in polarization. […] Exemplary methodology is described in Example 13. Data were analyzed and plotted in Microsoft Excel (Microsoft, Redmond, WA).
Varying concentrations of β-catenin inhibitor candidate (SEQ ID NO: 404) were then added in a series of serial dilutions from 10 nM to 30 uM of inhibitor in different wells of the plate. The fluorescence polarization was read by Infinite M1000 (Tecan, Baldwin Park CA) at excitation wavelength of 470 nm and measured at emission wavelength of 520 nm. […] The experiments were performed three times and data were analyzed and plotted in Microsoft Excel (Microsoft, Redmond, WA).

Binder	Kd
B1	≤ 400 nM
B2	≤ 400 nM
B3	> 400 nM and ≤ 1000 nM
H-RKKRRQRRR[Peg2]KW[Cha]LI[Abu]AWD-OH [SEQ ID NO: 282/493]	≤ 400 nM
Ac-LISFWG-OH [SEQ ID NO: 238]	> 10000 nM and ≤ 30000 nM
B4	≤ 400 nM
B5	≤ 400 nM
B6	≤ 400 nM
WPQSILDEHGQKVW (not fully specified; Ac-NH-WPQSILDE*H-Chg-QK*VW-NH2) [SEQ ID NO: 468]	≤ 400 nM
B7	≤ 400 nM
B8	> 400 nM and ≤ 1000 nM
B9	≤ 400 nM
B10	≤ 400 nM
B11	≤ 400 nM
B12	≤ 400 nM
